Results taken from patent US20030143712A1 (J DAVID GLADSTONE INSTITUTES, published 2003).
Where a chain is given by its changes, count along the chain named.

B1: GST-HDAC4(aa 612-1084) (enzyme, human, UniProt P56524 612-1084, looked up)
chain: MEAAGIPVSFGGHRPLSRAQSSPASATFPVSVQEPPTKPRFTTGLVYDTLMLKHQCTCGSSSSHPEHAGRIQSIWSRLQETGLRGKCECIRGRKATLEELQTVHSEAHTLLYGTNPLNRQKLDSKKLLGSLASVFVRLPCGGVGVDSDTIWNEVHSAGAARLAVGCVVELVFKVATGELKNGFAVVRPPGHHAEESTPMGFCYFNSVAVAAKLLQQRLSVSKILIVDWDVHHGNGTQQAFYSDPSVLYMSLHRYDDGNFFPGSGAPDEVGTGPGVGFNVNMAFTGGLDPPMGDAEYLAAFRTVVMPIASEFAPDVVLVSSGFDAVEGHPTPLGGYNLSARCFGYLTKQLMGLAGGRIVLALEGGHDLTAICDASEACVSALLGNELDPLPEKVLQQRPNANAVRSMEKVMEIHSKYWRCLQRTTSTAGRSLIEAQTCENEEAETVTAMASLSVGVKPAEKRPDEEPMEEEPPL
notes: range 612-1084; also called recombinant fusion protein corresponding to the catalytically active domain of HDAC4; not shown: glutathione-S-transferase (GST), fusion partner
B2: GST-HDAC7(aa 487-912) (enzyme)
chain: YDSVMLKHQCSCGDNSRHPEHAGRIQSIWSRLQERGLRSQCECLRGRKASLEELQSVHSERHVLLYGTNPLSRLKLDNGKLAGLLAQRMFVMLPCGGVGVDTDTIWNELHSSNAARWAAGSVTDLAFKVASRELKNGFAVVRPPGHHADHSTAMGFCFFNSVAIACRQLQQQSKASKILIVDWDVHHGNGTQQTFYQDPSVLYISLHRHDDGNFFPGSGAVDEVGAGSGEGFNVNVAWAGGLDPPMGDPEYLAAFRIVVMPIAREFSPDLVLVSAGFDAAEGHPAPLGGYHVSAKCFGYMTQQLMNLAGGAVVLALEGGHDLTAICDASEACVAALLGNRVDPLSEEGWKQKPNLNAIRSLEAVIRVHSKYWGCMQRLASCPDSWVPRVPGADKEEVEAVTALASLSVGILAEDRPSEQLVEEEEP
notes: not shown: glutathione-S-transferase (GST) of the pGEX4T1 vector (Pharmacia), N-terminal fusion partner
B3: endogenous HDAC3 (enzyme, UniProt O15379 1-428, looked up)
chain: MAKTVAYFYDPDVGNFHYGAGHPMKPHRLALTHSLVLHYGLYKKMIVFKPYQASQHDMCRFHSEDYIDFLQRVSPTNMQGFTKSLNAFNVGDDCPVFPGLFEFCSRYTGASLQGATQLNNKICDIAINWAGGLHHAKKFEASGFCYVNDIVIGILELLKYHPRVLYIDIDIHHGDGVQEAFYLTDRVMTVSFHKYGNYFFPGTGDMYEVGAESGRYYCLNVPLRDGIDDQSYKHLFQPVINQVVDFYQPTCIVLQCGADSLGCDRLGCFNLSIRGHGECVEYVKSFNIPLLVLGGGGYTVRNVARCWTYETSLLVEEAISEELPYSEYFEYFAPDFTLHPDVSTRIENQNSRQYLDQIRQTIFENLKMLNHAPSVQIHDVPADLLTYDRTDEADAEERGPEENYSRPEAPNEFYDGDHDNDKESDVEI
notes: SupT1 and 293 are human cell lines
B4: endogenous MEF2D of DO11.10 T-cell hybridoma cells (other, UniProt Q63943 1-514, looked up)
chain: MGRKKIQIQRITDERNRQVTFTKRKFGLMKKAYELSVLCDCEIALIIFNHSNKLFQYASTDMDKVLLKYTEYNEPHESRTNADIIETLRKKGFNGCDSPEPDGEDSLEQSPLLEDKYRRASEELDGLFRRYGSSVPAPNFAMPVTVPVSNQSSMQFSNPSSSLVTPSLVTSSLTDPRLLSPQQPALQRNSVSPGLPQRPASAGAMLGGDLNSANGACPSPVGNGYVSARASPGLLPVANGNSLNKVIPAKSPPPPTHNTQLGAPSRKPDLRVITSQGGKGLMHHLTEDHLDLNNAQRLGVSQSTHSLTTPVVSVATPSLLSQGLPFSSMPTAYNTDYQLPSAELSSLPAFSSPAGLALGNVTAWQQPQPPQQPQPPQPPQSQPQPPQPQPQQPPQQQPHLVPVSLSNLIPGSPLPHVGAALTVTTHPHISIKSEPVSPSRERSPAPPPPAVFPAARPEPGEGLSSPAGGSYETGDRDDGRGDFGPTLGLLRPAPEPEAEGSAVKRMRLDTWTLK
B5: HDAC7-FLAG (full-length human HDAC7 with C-terminal FLAG tag, expressed in cells) (protein)
chain: MDLRVGQRPPVEPPPEPTLLALQRPQRLHHHLFLAGLQQQRSVEPMRLSMDTPMPELQVGPQEQELRQLLHKDKSKRSAVASSVVKQKLAEVILKKQQAALERTVHPNSPGIPYRTLEPLETEGATRSMLSSFLPPVPSLPSDPPEHFPLRKTVSEPNLKLRYKPKKSLERRKNPLLRKESAPPSLRRRPAETLGDSSPSSSSTPASGCSSPNDSEHGPNPILGSEADSDRRTHPTLGPRGPILGSPHTPLFLPHGLEPEAGGTLPSRLQPILLLDPSGSHAPLLTVPGLGPLPFHFAQSLMTTERLSGSGLHWPLSRTRSEPLPPSATAPPPPGPMQPRLEQLKTHVQVIKRSAKPSEKPRLRQIPSAEDLETDGGGPGQVVDDGLEHRELGHGQPEARGPAPLQQHPQVLLWEQQRLAGRLPRGSTGDTVLLPLAQGGHRPLSRAQSSPAAPASLSAPEPASQARVLSSSETPARTLPFTTGLIYDSVMLKHQCSCGDNSRHPEHAGRIQSIWSRLQERGLRSQCECLRGRKASLEELQSVHSERHVLLYGTNPLSRLKLDNGKLAGLLAQRMFVMLPCGGVGVDTDTIWNELHSSNAARWAAGSVTDLAFKVASRELKNGFAVVRPPGHHADHSTAMGFCFFNSVAIACRQLQQQSKASKILIVDWDVHHGNGTQQTFYQDPSVLYISLHRHDDGNFFPGSGAVDEVGAGSGEGFNVNVAWAGGLDPPMGDPEYLAAFRIVVMPIAREFSPDLVLVSAGFDAAEGHPAPLGGYHVSAKCFGYMTQQLMNLAGGAVVLALEGGHDLTAICDASEACVAALLGNRVDPLSEEGWKQKPNLNAIRSLEAVIRVHSKYWGCMQRLASCPDSWVPRVPGADKEEVEAVTALASLSVGILAEDRPSEQLVEEEEPMNL

Assays:
[1] = molecular target: T1, endogenous HDAC3, O15379
T1 chain: B3 chain

[2] = molecular target: endogenous HDAC1 (UniProt Q13547 1-482); assay: repeated incubation of 293 or SupT1 extracts with the GST fusion, western blot of the depleted extract
[3] = molecular target: B3; assay: GST pull-down from SupT1 cell extracts, western blot
[4] = molecular target: B1; assay: repeated incubation of 293 or SupT1 extracts with the GST fusion, western blot of the depleted extract
[5] = molecular target: T2, FLAG-tagged HDAC7-ΔMEF (expressed in DO11.10 cells) (human, UniProt Q8WUI4 1-952); assay: anti-FLAG immunoprecipitation from DO11.10 polyclonal cell lines, endogenous MEF2D
T2 construct: not shown: FLAG tag
T2 sequence: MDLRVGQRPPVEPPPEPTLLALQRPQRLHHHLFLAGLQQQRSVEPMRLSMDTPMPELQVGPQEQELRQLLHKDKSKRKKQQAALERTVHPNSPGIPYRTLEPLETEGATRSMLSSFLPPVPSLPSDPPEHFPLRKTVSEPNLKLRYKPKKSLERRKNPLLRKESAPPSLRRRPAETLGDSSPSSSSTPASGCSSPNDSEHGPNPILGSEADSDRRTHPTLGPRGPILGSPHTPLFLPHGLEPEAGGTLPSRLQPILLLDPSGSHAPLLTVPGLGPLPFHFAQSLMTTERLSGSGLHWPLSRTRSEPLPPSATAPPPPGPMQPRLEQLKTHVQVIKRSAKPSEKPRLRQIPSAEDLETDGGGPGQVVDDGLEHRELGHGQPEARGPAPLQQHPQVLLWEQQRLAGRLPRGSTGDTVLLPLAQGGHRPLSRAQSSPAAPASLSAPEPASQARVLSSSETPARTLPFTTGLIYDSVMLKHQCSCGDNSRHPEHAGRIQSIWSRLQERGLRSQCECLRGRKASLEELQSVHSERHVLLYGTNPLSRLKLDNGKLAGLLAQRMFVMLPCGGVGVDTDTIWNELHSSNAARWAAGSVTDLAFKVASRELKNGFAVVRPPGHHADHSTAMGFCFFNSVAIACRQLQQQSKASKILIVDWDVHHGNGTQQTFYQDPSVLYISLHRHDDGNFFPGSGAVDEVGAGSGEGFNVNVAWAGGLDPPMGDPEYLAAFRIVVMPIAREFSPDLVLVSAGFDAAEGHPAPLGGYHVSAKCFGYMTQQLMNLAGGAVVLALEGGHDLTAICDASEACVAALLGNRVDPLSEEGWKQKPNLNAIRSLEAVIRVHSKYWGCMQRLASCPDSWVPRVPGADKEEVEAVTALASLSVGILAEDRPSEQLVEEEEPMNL

[6] = molecular target: T3, FLAG-tagged HDAC7-K86AK88A (expressed in DO11.10 cells) (human, UniProt Q8WUI4 1-952); assay: as above
T3 construct: not shown: FLAG tag
T3 sequence: B5 chain with K86A, K88A

[7] = molecular target: B3; assay: cell-based or functional assay

Chain of endogenous HDAC1 (Q13547 whole entry, the tested form may be a part): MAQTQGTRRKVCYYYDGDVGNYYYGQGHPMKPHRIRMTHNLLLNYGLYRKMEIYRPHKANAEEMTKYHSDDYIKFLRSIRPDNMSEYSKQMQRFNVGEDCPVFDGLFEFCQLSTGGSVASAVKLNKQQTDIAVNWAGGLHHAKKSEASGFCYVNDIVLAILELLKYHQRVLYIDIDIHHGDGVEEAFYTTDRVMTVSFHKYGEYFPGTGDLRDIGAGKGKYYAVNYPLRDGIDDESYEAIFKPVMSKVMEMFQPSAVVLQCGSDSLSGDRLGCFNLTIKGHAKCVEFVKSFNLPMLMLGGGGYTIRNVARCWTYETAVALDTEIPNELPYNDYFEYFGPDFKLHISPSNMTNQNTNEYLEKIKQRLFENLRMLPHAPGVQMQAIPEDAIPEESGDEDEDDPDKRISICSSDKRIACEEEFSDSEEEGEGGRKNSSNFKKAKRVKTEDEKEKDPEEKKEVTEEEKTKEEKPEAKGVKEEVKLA

Question: What does the source list for B1?
Answer: HDAC activity associated with the GST pull-down from GST-HDAC4 depleted lysate against GST depleted lysate (fold reduction) [1]: 3; binding result [2]: no binding

Question: Does B2 bind [3]?
Answer: Result: no binding

Question: Does B3 bind [4]?
Answer: Result: binds

Question: Which results are given for B4?
Answer: binding result [5]: no binding; binding result [6]: no binding

Question: Which “HDAC activity, nuclear against cytoplasmic fraction” value [1] does the source give for B5 here?
Answer: Its value is 4.5 times higher.

Question: And the HDAC activity of HDAC7-FLAG immunoprecipitated from the cytoplasmic fraction of 293 cells [7]?
Answer: Its HDAC activity of HDAC7-FLAG immunoprecipitated from the cytoplasmic fraction of 293 cells is 3240 counts/min.

Question: What about the HDAC activity of HDAC7-FLAG immunoprecipitated from the nuclear fraction of 293 cells [7] of the same binder?
Answer: Its HDAC activity of HDAC7-FLAG immunoprecipitated from the nuclear fraction of 293 cells is 14800 counts/min.
